Values joined by “and” are separate entries in the source; they are usually repeats but may differ in a detail not shown here. Equal entries are not always repeated.

For data set [1], the target named is T1, T. maritima encapsulin (Thermotoga maritima, UniProt Q9WZP2).
T1 construct: gene enc; encapsulin shell, codon-optimised gene in pET14, E. coli BL21(DE3), co-expressed with His6-tagged FLP cargo (sub-stoichiometric loading); T = 1 icosahedral shell of 12 pentamers; flavin site between two shell subunits; with Encapsulated ferritin-like protein (FLP cargo)
In words: cryo-EM structure […] A; absorbance, LC-MS of released flavin. It counts as binding. To be noted: co-purified flavin; pi-stacking with W90 between two shell subunits; fluorescence quenched until denatured.

The target in data set [2] is T1, T. maritima encapsulin. The data set is described as follows: LC-MS of flavin released from purified encapsulin. In kind it is binding. Conditions: co-purified minor species; exact flavin composition not determined.
Data set [3] deals with the molecule itself. The data set is described as follows: cryo-EM structure; FLP-loaded encapsulin, co-expressed in E. coli and purified as a complex; 2 mg/mL, 0.05% NP-40; 2D classes, I1 reconstruction of the shell (3.3 Å), C1 reconstruction, symmetry expansion and focused classification of the FLP at a pentameric vertex (shell ~3.5 Å, FLP ~7 Å).
Data set [4] concerns the target Thermotoga maritima encapsulin shell protein (Thermotoga maritima) (UniProt Q9WZP2). The data set is described as above.

T1 sequence (Q9WZP2 whole entry): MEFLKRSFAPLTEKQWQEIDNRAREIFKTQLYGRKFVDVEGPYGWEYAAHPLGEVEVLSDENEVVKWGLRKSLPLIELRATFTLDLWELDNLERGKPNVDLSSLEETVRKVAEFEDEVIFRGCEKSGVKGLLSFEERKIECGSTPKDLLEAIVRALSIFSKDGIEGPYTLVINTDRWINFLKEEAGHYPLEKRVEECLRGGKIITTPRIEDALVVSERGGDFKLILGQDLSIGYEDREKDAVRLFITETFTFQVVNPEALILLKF

With `Cc1cc2nc3c(=O)[nH]c(=O)nc-3n(C[C@H](O)[C@H](O)[C@H](O)COP(=O)(O)O)c2cc1C` [FMN, flavin mononucleotide], on T. maritima encapsulin [1], the “cryo-EM structure 3.3 A; absorbance, LC-MS of released flavin” value was “additional density near W90 that corresponds to a flavin undergoing π–stacking with the tryptophan”.

For `Cc1cc2nc3c(=O)[nH]c(=O)nc-3n(C[C@H](O)[C@H](O)[C@H](O)CO)c2cc1C` [riboflavin], the “LC-MS of flavin released from purified encapsulin” value at T. maritima encapsulin [2] was “Both FMN and riboflavin were present as the major and minor peaks respectively”.

B1: Thermotoga maritima ferritin-like protein (FLP) cargo (natural protein, UniProt Q9WZP3 1-114, looked up)
chain: MADQYHEPVSELTGKDRDFVRALNSLKEEIEAVAWYHQRVVTTKDETVRKILEHNRDEEMEHAAMLLEWLRRNMPGWDEALRTYLFTDKPITEIEEETSGGSENTGGDLGIRKL
notes: ferritin-like protein, native cargo of the Thermotoga maritima encapsulin; Decamer with fivefold symmetry; The map of the cargo (EMD-24002) has no atomic model of its own; a homologous FLP crystal structure (PDB 5DA5) was docked as a rigid body; also called cargo protein; ferritin-like cargo protein; copies: 10
Turning to B1, the stoichiometry N – broadly, the number of molecules, sites or subunits per partner or assembly – in data set [3] is 10; in data set [4], 3 FLPs/shell and 5 FLPs/shell and 4 FLPs/shell. Also, the stoichiometry N (FLPs per encapsulin) in data set [4] worked out at 2.
